This test deals with HOIP UBA-RBR-LDD/HOIL-1L UBL complex (human) (UniProt Q96EP0). Nature of the test: ITC. On the technique in general: ITC needs no label: the signal is the heat of the interaction.
Chain of HOIP UBA-RBR-LDD/HOIL-1L UBL complex (human) (Q96EP0 whole entry, chain 1 of 2): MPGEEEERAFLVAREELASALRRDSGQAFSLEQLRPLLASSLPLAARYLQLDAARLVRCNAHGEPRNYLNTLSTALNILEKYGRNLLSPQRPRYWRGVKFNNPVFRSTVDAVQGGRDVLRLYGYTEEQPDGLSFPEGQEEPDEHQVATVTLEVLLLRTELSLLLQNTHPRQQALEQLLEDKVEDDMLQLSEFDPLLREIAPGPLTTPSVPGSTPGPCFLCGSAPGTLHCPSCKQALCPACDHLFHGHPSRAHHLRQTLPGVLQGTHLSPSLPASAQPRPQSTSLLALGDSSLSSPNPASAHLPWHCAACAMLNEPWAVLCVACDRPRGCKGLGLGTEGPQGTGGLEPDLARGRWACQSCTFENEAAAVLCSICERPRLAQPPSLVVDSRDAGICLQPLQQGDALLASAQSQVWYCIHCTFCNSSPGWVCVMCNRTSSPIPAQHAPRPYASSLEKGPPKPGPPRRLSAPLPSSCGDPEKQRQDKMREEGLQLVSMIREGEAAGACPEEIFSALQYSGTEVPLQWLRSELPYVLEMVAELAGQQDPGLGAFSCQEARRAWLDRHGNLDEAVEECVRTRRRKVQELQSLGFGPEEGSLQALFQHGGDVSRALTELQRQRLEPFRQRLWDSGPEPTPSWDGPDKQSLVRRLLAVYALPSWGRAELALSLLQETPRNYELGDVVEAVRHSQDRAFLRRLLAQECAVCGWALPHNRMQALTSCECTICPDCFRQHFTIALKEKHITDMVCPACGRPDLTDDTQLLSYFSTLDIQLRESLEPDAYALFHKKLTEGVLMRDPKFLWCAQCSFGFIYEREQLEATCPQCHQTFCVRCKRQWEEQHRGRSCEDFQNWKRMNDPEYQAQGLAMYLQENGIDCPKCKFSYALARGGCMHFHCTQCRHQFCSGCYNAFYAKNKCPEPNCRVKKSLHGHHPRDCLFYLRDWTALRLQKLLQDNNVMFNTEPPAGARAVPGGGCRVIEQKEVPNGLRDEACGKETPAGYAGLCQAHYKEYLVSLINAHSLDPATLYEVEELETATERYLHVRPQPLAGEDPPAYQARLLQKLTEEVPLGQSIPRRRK
Chain of HOIP UBA-RBR-LDD/HOIL-1L UBL complex (human) (Q9BYM8 53-135, chain 2 of 2, further chain): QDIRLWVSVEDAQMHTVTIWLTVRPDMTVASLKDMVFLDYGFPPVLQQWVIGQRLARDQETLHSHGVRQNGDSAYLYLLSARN

As for “IpaH1.4 LRR domain (from UniProt A0A0H2USG1 38-283) (domain or fragment)”, the Kd stood at 2300 nM.

What is called Kd is the concentration at which binding is half-saturated. Read a low Kd as higher affinity.

Source of the values: paper PMC8944867.
